{"source": "patent US12173052B2", "key": {"[1]": {"molecular_target": "V5 variants (YU-2 gp120, residues 458gp120 and 459gp120)"}, "[2]": {"molecular_target": "loop D variants (YU-2 gp120, residues 279gp120 and 280gp120)"}}}
{"substance": "45-46m7 (45-46m2+HC W47V) (antibody)", "values": [{"measurement": "IC50, in vitro pseudovirus neutralization", "setting": "[1]", "result": "< 0.01", "unit": "µg/mL"}, {"measurement": "IC50, in vitro pseudovirus neutralization", "setting": "[2]", "result": "> 0.1", "unit": "µg/mL"}]}
{"substance": "NIH45-46^G54W(HC)S28Y(LC) (antibody)", "values": [{"measurement": "IC50, in vitro pseudovirus neutralization", "setting": "[1]", "result": "< 0.01", "unit": "µg/mL"}, {"measurement": "IC50, in vitro pseudovirus neutralization", "setting": "[2]", "result": "> 0.1", "unit": "µg/mL"}]}
